Measurements taken from the DeepSol protein solubility set.

assay: soluble on expression in E. coli; label from the status in PepcDB or PDB records

Row | Sequence | soluble on expression in E. coli
1 | MMRGASKRSISSAAVLLIKKNKLPPRPKFTPEMEAQCTEKFLHGGRGPGGQKINKCNSKVQLRHEPTGIVVECQETRSREQNRKLARLKLARELAASYDTMPSREEALLQWHRQQKRSQRRRSVAKYEQREEAARVEKEEREARDREMVRELFRR | soluble
2 | MTITSFGPANRIARTAETHPLTWRLRDDGEPVWLDEYQTKDGYAAARKALTQQAPDDIVQSVKDSGLKGRGGAGFPTGVKWGLMPKDESMNIRYLLCNADEMEPNTWKDRMLMEQLPHLLIEGMLISARALKAYRGYIFLRGEYVTAAKHLNRAVAEAKAAGLLGKNILGTGFDFELFVHTGAGRYICGEETALINSLEGRRANPRSKPPFPAAVGVWGKPTCVNNVETLCNVPAIVNNGNDWYKSLAREGSEDHGTKLMGFSGKVKNPGLWELPFGVQARELFEDYAGGMRDGFTLKCWQPGGAGTGFLLPEHLDAQMYAGGIAKVGTRMGTGLAMAVDDSVNMVSLLRNMEEFFAQESCGFCTPCRDGLPWSVKILRAIENGHGQPGDIETLLGLVNFLGPGKTFCAHAPGAVEPLGSAIKYFRSEFEAGIAPASAAMLVPGKSPTVVGALEHHHHHH | not soluble
3 | MGSDKIHHHHHHMTPRPVSSVARLVEDNAQDFLRAVQAKLLTLAPQARGHFPTADDATHISIAEMVSALLEGTGEEGKVDDKTLEFFKEAALDARRFGLTPEMHSALGEAVRSELLSLCEDLPFENVLFAERAIAATTAVSVEAVREADEAHIPASYQAEIVEVEKRSRRFTVVRMQAETQLPYLPGQYLAATADFLPNTWRYLCPSIPTNEWGQVEFHIQSDADDIAGLLATTRLGDKWRLGPGRGDFGQSKISSGNDLLFIAHGTGLAPLRAYMFELMNQAAPPRLHFFVGADYPGELYELTGMWNFAAASPWLSVVPVSTHDKDAWWVQATEASQPPRGLHLHQTGSMAKIVTEAGAWADRDVLIAGPESWARDVRRAMIRRGTPAQQIEILGF | not soluble
4 | MNELIGFVNGNSVRQKVLSLLASKGEMEGKRISKTLRVVYPTIAKTLEELEEKNLISKKEEIYFLTETGTKIEKMVQQI | not soluble
5 | VAHFTFQPDPEPREYGQTQKMNLFQSVTSALDNSLAKDPTAVIFGEDVAFGGVFRCTVGLRDKYGKDRVFNTPLCEQGIVGFGIGIAVTGATAIAEIQFADYIFPAFDQIVNEAAKYRYRSGDLFNCGSLTIRSPWGCVGHGALYHSQSPEAFFAHCPGIKVVIPRSPFQAKGLLLSCIEDKNPCIFFEPKILYRAAAEEVPIEPYNIPLSQAEVIQEGSDVTLVAWGTQVHVIREVASMAKEKLGVSCEVIDLRTIIPWDVDTICKSVIKTGRLLISHEAPLTGGFASEISSTVQEECFLNLEAPISRVCGYDTPFPHIFEPFYIPDKWKCYDALRKMINYGGHHHHHH | soluble
6 | MGASQSAEQEARPEVVRIDRNEIPEEYKTVGVSSDVVSRVNATRVAGNDGESDRLRQELAREREEKARLREDMAKLSQLQQRKTAGISAAPVSISGNDLEERKKIFDDTVERVQKQFFAYHRENVCQDNENEIVRCLQENPGRVLKCAPLTEAFEKCVGEFRQQVLKGN | not soluble
7 | MKRSLLACAMSCMMLTVSAHSDFDVRNVDSQFHVPEIGGGVGLIDQQKERQIGEKVFREIQKQMPVVHDPWLQEQYSQIFLRVLAQTSITQPVGLVIIKDPQINAFAVPGGLFALNTGLIANARNIDEVAGVMAHEVAHVTQRHYSRSQEAFKGQGLLALAGILVGAAVATTSNADVGSAVMLGTQAALMDRQLTYSRNQEREADRIGMQYMYAAGYNPQSMADFFETMQRSRVGSSFMPDFWMTHPLTTERMSEARLRANQLPKVETKLYDPNFQLLKWYTLAVSDPSSEKILENVVKQGNKEAQLALGAYYVGQGDFVKAQKQLDDIKSQFNENTLYCLIQTNIYLGQNELDQAYSSIVNIQRAMPESRALAYKLAEVMILQGKAGDTLQLIQPFVNRNPRDLEGWQLMQQASSIDRISPVQTVNTLRYRAEVQFWSGNEENAIKSLLHAQRLAKGNESLSARIDSRLKQMQSDYTMKI | not soluble
8 | MDIVSVALQRYSTKAFDPSKKLTAEEADKIKTLLQYSPSSTNSQPWHFIVASTEEGKARVAKSAAGNYTFNERKMLDASHVVVFCAKTAMDDAWLERVVDQEDADGRFATPEAKAANDKGRRFFADMHRVSLKDDHQWMAKQVYLNVGNFLLGVAAMGLDAVPIEGFDAEVLDAEFGLKEKGYTSLVVVPVGHHSVEDFNAGLPKSRLPLETTLTEV | not soluble
9 | MENGIGYIPLLNVSHKHGGTHFYRKNSGTCDLCEKNFKTSEELVEHKKNYPRADVEKALSVYKEKDTIYKCLQCSGEFRLKEDFDYHQELHKRLGELKSASSNKSEANKDDESDIDSSFEIIEN | not soluble
10 | MAGDPMSESLAQYQEDLRRFSDELIRIQTPIKILDAIKWPREMEERFLSSKGTVLPAIKQDFYQNIALPFDPAKTQAELLSLKNDIHRRLGKKDKLGKLLVANVDQYRLVVDMLGHRGTPTFGKLSQELYGSASHRLHGDRHTLRQLGDRLSYIFSLPAARHMNKHHPKIISAPEAVNVLSQRLEKYFHSDDMRVRLSDGIVSDAAVGGDTVKLNSKAMFSESDLNVYEVHEGWVHVGTTLNGRAQPHATWLSVGSPRVAATQEGLAVLLEMLTLSSNPGRARRISDRVAAVDMAENGADFIEVFNYFRELNLSAKDSYRVTQRVFRGGMVEGGSFFTKDISYVRGYVENINFIRSAITSGLPELIPMLFLGKLAIEDIPVLYQACQEGILTPPKYLPPMFDNFSGLYAWFGFASGLAGIDLKGVQRHFTRLFKDVPSIDPSLELLDDTEFDNNSDAAALEHHHHHH | soluble
11 | AHHHHHHGSKNLYLPITIDHIARVEGKGGVEIIIGDDGVKEVKLNIIEGPRFFEAITIGKKLEEALAIYPRICSFCSAAHKLTALEAAEKAVGFVPREEIQALREVLYIGDMIESHALHLYLLVLPDYRGYSSPLKMVNEYKREIEIALKLKNLGTWMMDILGSRAIHQENAVLGGFGKLPEKSVLEKMKAELREALPLAEYTFELFAKLEQYSEVEGPITHLAVKPRGDAYGIYGDYIKASDGEEFPSEKYRDYIKEFVVEHSFAKHSHYKGRPFMVGAISRVINNADLLYGKAKELYEANKDLLKGTNPFANNLAQALEIVYFIERAIDLLDEALAKWPIKPRDEVEIKDGFGVSTTEAPRGILVYALKVENGRVSYADIITPTAFNLAMMEEHVRMMAEKHYNDDPERLKILAEMVVRAYDPCISCSVHVVRL | soluble
12 | MGSDKIHHHHHHMTKRIMFTGGSGKAGRHVVQYLVEQGCQVLNIDTKPLDNPKVRTLITDITDSGQVFNALSSYMGLHEFDPSLRPQPVDAVVHFAAIPRIMITPDNEVFRINAMGTYNVIEAAVKLGIRKVIVASSETTYGLVFANEPRDPKYFPLDEEYDVDPMDSYALSKVVNEKTARAFAQRNGTDIYALRIGNVIEPHEYSLFPKWFADPGFRKRIAWSYIDARDLGQITLRAIEKDGLGYQVFNAANDDTSSDLPTAELLKRFYPNVPVKAALGEYETLLSNRKARDMLGFRPEHSWRKYVK | not soluble
13 | MSLSTFRSIEWKKDKLVLLDQRYLPEKTLYLELKTVDEVARAIKEMTVRGAPAIGVAAAYGMVLCVQKLSKNDDLIRELQKADDLLRASRPTAVNLFWALDRMKKIWQGFNGSLEDLKMILEKEATDIEREDVEINKQIAKNGVELVPFGAKIIHHCNTGSLATVDYGTALGVIRYAHEIGKKIHVFLDETRPRLQGARLSAWEMKELGIPHTIIVDGASGLVMKKFKIDLALVGADRIAANGDTANKIGTYNLAIVAKYHNVPLYVVAPTSTIDLKTPAGQDIPIEERSADEIRCVGNSQVAPQESPVFNPAFDVTPAELISGIITEKGIVYPPFKENLRKLFESAEGHHHHHH | soluble
14 | MGSDKIHHHHHHMKIMSIELGKFNQLEVVKQVDFGMYLDGGEEGEILLPTRYVPEDCKLGDWLNVFLYLDNEERLIATTLTPLVQVGEFACLEVSWVNQFGAFLNWGLMKDLFVPFSEQKMKMQVGNKYVIHAHIDDESFRIVASAKVDRYLSKEKASYQPGEEVNILIWQKTDLGFKAIIENMYSGLLYDSEIFQTLHTGDVLKAYVKQVREDGKIDLILQKPGFEKIDDFSKTLHRYITEHGGWIGLTDKSPAEEIYDTFGVSKKTFKKAVGDLYKKRLILLHEDGIELVRP | not soluble
15 | MKLTLMFREYCSLCHKMRDELKPFQDEYGFGLEVVDVDENPVLEEKYNELVPVLLAGDEEICHWFLDEDRLKQFLER | not soluble
16 | SLKTIDMKYLRLLAKEYPTIAKTATEIINLEAIMNLPKGTEHFLSDVHGEYSAFEQVLRNGSGVVKRKIRDIFGAELDDAEINSLSTLIYYPEEKMDLLASETEDLQAWYRTTLFRLIELCQYVASKYTRSKVRKAMPEDFAYILEELLHENYNEDDKKLYYEEILQHIISLGRAEEFISALSLLIQQLVVDHLHIVGDVYDRGPYPDKIMDTLMNYHSLDFQWGNHDILWMGAASGSRVCAANVIRISARYLNLDILEDSYGISLRPLALFADEVYKDDPCTYFQPKNEENINYSNAEITQIARMHKAISIIQFKLEGEIINRRKEFDMDHRLLLQFIDYKKGTIHLKGKEYLLLDSHFPTINPEKPYELTDAERELIGKITAAFKNCRRLQKHVQFLYSKGSMFLTYNGNLLYHGCIPLHEDGTFMEMKLRGEKYAGRSLLEQFEILTREAYVRPTGTKEKKYACDIVWYLWTGAISSLFGKSEMTTFERYFVAEKETHTEEKNPYYKLRNNELICKQILEEFGLDGECGHIINGHTPVKEGKGESPIKANGKMLVIDGGFAKAYHKETNLAGYTLLFNSYGLQLVSHQPFTTKEDAIKNETDILSTRQVIEMEINRKRVRDTDIGAKLSEQAEDLKLLLDAYRNGLLHENR | soluble
17 | MGSDKIHHHHHHVEASYAQRLRQEKGYAYADNCNTKTSLSIKMSMVLLTPTVSSNFEKDSLIYMAKKIHFISNSIVKEINNSDNVSILVLDKEEIISLFKANGILLFRGFDVDVDIFKEFTNLLSIDFINYAGGAFSRRVINGDQTVLSVNDFKSEIKLHGEMYYQKNIPLMLWFFCANPPLEDGETTVCDGRQFFHEISSSTKELFRQKNLKFTVRMSKEDWQKKYKTDDVNQLKEICRNNNTHLKIFDDRSIMLEYISPAIIPSRCGNYQVFINSLLPTKQLSPNILKFEDDSDIPEEVVSELNEIAEKITTEISWRKGDILMIDNTRILHGRRSFADDQRDIYIRLCSPAFSF | not soluble
18 | MSLKNLPIGGVWKGKVKLHSNSPAQDYFANITLNTLDPNHIDVFFPEFAHATPRVQLDLHPTGSVNGSNYAQDLTMLDMCLYDGFNGNAISYEIMLKDEGRPAAGRRDGYFSIYRQGGTTTDEGERIDYRVKMYNPETGGQIDVRNNENMVWNSINLKRVRPVVLPGIRYAVMCVPTPLTLAVDKFSVMDKQAGYYMGKLSVIFTPSLPTINEGHHHHHH | soluble
19 | MSLKQEKLALVESALEDFYGDQQFASSLRESVLYSIHAGGKRIRPFLLLEVLEALQVTIKPAHAQVATALEMIHTGSLIHDDLPAMDDDDYRRGRLTNHKKFGEAMAILAGDALFLDSYALIAQADLPSQIKVDLIANLSLASGSLGMVAGQVLDMEGEHQHLSLEELQTIHANKTGKLLAYPFQAAAIIAELSPEMQVKLKTVGELIGLAFQVRDDVLDVTASFEEIGKTPQKDLQAEKSTYPALLGLEESIAFCNQTLDQANEKLEEIAQQLPFETESIVSVVESLRINGEGHHHHHH | soluble
